Series [1] can be described thus: In vitro stability in PBS. The format is physicochemical. The note with it: 3.7 MBq in 0.5 mL PBS, 37 °C (results; method: room temperature), radio-TLC or radio-HPLC. As for the experimental part:
The stability of [^18F]AlF-NOTA-ADH-1 was tested in PBS and bovine serum. In brief, 3.7 MBq of[^18F]AlF-NOTA-ADH-1 was pipetted into 0.5 mL of PBS and incubated in PBS at room temperature or bovine serum at 37°C. For the study, an aliquot of the solution was directly taken at 1, 6, and 8 h after incubation, and the radiochemical purity was determined by radio-TLC or radio-HPLC under identical conditions.

The format of series [2] is physicochemical. The method, then:
The partition coefficient of [^18F]AlF-NOTA-ADH-1 was measured by assessing the distribution of radioactivity in 1-octanol and phosphate buffer in a 2 mL centrifuge tube. 20µL of [^18F]AlF-NOTA-ADH-1 solution was added to a tube containing 0.5 mL each of 1-octanol and PBS. The mixture was vortexed and centrifuged (5,000 r/min) for 5 min. A total of 2 samples (50 μL) were collected from each layer and were assayed in a γ counter. Partition coefficients (log Po/w) are shown as the log counts in 1-octanol vs. PBS layers (n=3).

A short description of another series: in vivo. The note with it: female, BALB/c nu/nu, mouse, in vivo, iv, total radioactivity. In kind it is in vivo, BALB/c nu/nu mice. As for the experimental part:
All animal experiments were performed in accordance with and approved by the Institutional Animal Care and Use Committee guidelines of the First Affiliated Hospital of Zhejiang University School of Medicine. BALB/c nu/nu mice (female, 20 ± 3 g, 4- to 6-week-old; Department of Laboratory Animal Science, Zhejiang University) were used in this study. The SW480 and BxPC3 xenografts were generated, and 5×10^6 tumor cells were subcutaneously injected into the flanks of female athymic nude mice. The PDX-bearing mouse models were established as follows. Pancreatic cancer (diagnosed as pancreatic ductal adenocarcinoma) tissues were obtained from the surgery of a patient. Written informed consent was obtained from the patient, and the research protocol was approved by the Clinical Research Ethics Committee of the First Affiliated Hospital of Zhejiang University School of Medicine. The sample was sectioned into about 1mm^3 pieces, and the tumor tissues were subcutaneously implanted into BALB/c nu/nu mice flanks. Mice were allowed free access to sterile water and food and were kept under strict disease-free conditions with controlled temperature (~25°C), humidity (50-70%), and circadian rhythms (12-hour light/dark cycles). All necessary procedures were carried out to minimize discomfort and avoid the waste of animals. The length and width of the tumor were measured every other day. Biodistribution studies and positron emission tomography in mice were performed after the tumor volume reached 150 to 200 mm^3.
The BALB/c nude mice were randomized into different tumor models (SW480, BxPC3, and pancreatic PDX), including 5 mice per group. Each nude mouse was injected with 0.74MBq (20μCi) [^18F]AlF-NOTA-ADH-1 through the caudal vein. Blood was collected from the orbit, and the mice were dissected to collect the brain, heart, lung, liver, liver, spleen, stomach, intestine, muscle, bone and others at 30 min, […], 60min, 90min and 120min after injection. In the blocked group, the study was performed with a saturating dose of ADH-1 (20 mg/kg of mouse body weight) intravenously administered 60min before the intravenous injection of [^18F]AlF-NOTA-ADH-1 in the pancreatic PDX model and SW480 xenograft model. The mice in the tumor xenograft model were sacrificed 1h after [^18F]AlF-NOTA-ADH-1 injection. The nude mice were dissected, and tumor tissues and related tissues (blood, brain, heart, lung, liver, spleen, kidney, stomach, intestine, muscle and bone) were weighed, and their radioactivity was measured by γ-counter. The radioactivity results were recorded as % ID/g.

Setting [3] is: 0.74 MBq (20 uCi) per mouse, Kidney uptake.

On to `CC(=O)N[C@H]1CSSC[C@@H](C(=O)NCCNC(=O)CN2CCN(CC(=O)O)CCN(CC(=O)O)CC2)NC(=O)[C@H](C(C)C)NC(=O)[C@H](C)NC(=O)[C@H](Cc2c[nH]cn2)NC1=O` [[^18F]AlF-NOTA-ADH-1], for which the “Radiochemical purity after 8 h in PBS” value in series [1] was “about 95.5%”. Also, the “Partition coefficient (log Po/w)” value in series [2] is -2.45 ± 0.09. In addition, in “in vivo” (setting [3]), the tissue uptake at 1 h is 10.2 ± 0.47 %ID/g, the tissue uptake at 1.5 h is 9.39 ± 0.75 %ID/g and the tissue uptake at 2 h amounted to 6.61 ± 0.87 %ID/g. Further, in the series “in vivo” (0.74 MBq, Muscle uptake), the tissue uptake at 0.5 h is 1.03 ± 0.4 %ID/g. In “in vivo” (0.74 MBq, Pancreas uptake), the tissue uptake at 0.5 h was 0.23 ± 0.08 %ID/g, the tissue uptake at 1 h came to 0.61 ± 0.09 %ID/g, the tissue uptake at 1.5 h amounted to 0.49 ± 0.23 %ID/g and the tissue uptake at 2 h amounted to 0.65 ± 0.11 %ID/g.

The tissue uptake is the share of the injected amount in each gram of the tissue.

Source of the values: paper PMC10239968, “[^18F]AlF-NOTA-ADH-1: A new PET molecular radiotracer for imaging of N-cadherin-positive tumors” (Frontiers in Oncology, 2023).
